Values quoted from earlier work in PMC4732575.

Tests used:
[1] = biological target: LDLR (Homo sapiens) (UniProt P01130)
[2] = biological target: CD36 (Homo sapiens) (UniProt P16671)
Sequence of CD36 (Homo sapiens) (P16671 2-472): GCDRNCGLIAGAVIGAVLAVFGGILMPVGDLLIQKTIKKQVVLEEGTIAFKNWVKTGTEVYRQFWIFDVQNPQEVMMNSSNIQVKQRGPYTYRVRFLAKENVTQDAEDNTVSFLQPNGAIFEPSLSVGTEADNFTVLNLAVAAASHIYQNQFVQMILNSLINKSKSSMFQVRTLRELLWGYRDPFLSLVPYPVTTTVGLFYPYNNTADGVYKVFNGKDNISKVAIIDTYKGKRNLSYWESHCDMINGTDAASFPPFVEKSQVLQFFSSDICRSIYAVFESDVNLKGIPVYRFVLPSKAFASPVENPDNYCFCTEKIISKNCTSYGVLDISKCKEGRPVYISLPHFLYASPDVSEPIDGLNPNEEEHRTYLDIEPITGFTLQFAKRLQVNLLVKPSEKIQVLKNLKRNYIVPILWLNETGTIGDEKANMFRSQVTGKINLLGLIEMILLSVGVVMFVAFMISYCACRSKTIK

Sequence of PCSK9 (Q8NBP7 153-692): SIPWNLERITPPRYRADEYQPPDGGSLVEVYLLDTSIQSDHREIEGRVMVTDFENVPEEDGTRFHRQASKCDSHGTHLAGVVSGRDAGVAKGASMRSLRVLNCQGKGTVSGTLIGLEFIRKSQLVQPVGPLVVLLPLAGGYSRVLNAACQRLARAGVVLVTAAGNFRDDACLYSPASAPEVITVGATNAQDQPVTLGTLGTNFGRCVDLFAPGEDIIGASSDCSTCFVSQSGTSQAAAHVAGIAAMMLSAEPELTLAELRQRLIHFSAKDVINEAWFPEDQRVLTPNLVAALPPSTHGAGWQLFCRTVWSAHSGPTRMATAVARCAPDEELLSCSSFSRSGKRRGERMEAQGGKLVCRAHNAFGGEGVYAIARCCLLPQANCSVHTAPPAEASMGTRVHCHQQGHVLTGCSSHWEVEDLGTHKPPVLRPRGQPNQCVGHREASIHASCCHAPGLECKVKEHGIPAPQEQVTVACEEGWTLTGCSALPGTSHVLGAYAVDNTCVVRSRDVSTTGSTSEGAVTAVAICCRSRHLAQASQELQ
Sequence of LDLR (Homo sapiens) (P01130 22-788): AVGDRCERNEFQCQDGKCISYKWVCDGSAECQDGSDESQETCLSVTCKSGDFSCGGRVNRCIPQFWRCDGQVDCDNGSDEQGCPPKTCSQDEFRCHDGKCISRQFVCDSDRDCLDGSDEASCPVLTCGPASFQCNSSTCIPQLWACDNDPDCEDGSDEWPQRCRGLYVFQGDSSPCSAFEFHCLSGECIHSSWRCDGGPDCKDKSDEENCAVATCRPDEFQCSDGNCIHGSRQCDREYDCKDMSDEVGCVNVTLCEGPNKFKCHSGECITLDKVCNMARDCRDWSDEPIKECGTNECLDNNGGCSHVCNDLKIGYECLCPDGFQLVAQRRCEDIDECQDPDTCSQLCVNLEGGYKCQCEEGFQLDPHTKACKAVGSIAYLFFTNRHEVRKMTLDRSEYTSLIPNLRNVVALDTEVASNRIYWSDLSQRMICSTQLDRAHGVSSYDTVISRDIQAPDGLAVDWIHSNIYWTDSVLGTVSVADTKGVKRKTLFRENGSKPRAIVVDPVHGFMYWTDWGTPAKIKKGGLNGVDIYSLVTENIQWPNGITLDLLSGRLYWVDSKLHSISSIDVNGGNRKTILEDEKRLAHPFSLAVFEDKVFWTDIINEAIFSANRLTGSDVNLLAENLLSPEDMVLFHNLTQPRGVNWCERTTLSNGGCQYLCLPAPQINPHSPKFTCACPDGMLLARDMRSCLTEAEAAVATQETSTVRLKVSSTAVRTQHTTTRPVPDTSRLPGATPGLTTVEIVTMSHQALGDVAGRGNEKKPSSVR

For PCSK9 (from UniProt Q8NBP7), the Kd [1] is listed as 1 µM and the Kd [2] is listed as 1 µM.
